B1: TRIM43 (parent)
chain: RAQMIRNEYRKLHPVLHKEEKQHL

Variants of: B1
Experiment: protein stability index of a GFP-peptide fusion (GPS, HEK-293T) (PSI 1-6); higher = more stable
Details: c terminus: a fixed tail appended
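Further: lentivirally expressed fusions sorted by FACS into six bins by GFP to DsRed ratio, PSI derived from sequencing read proportions per bin multiplied by bin number.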

Point of comparison: LAQMIRNEYRKLHPVLHKEEKQHL, protein stability index 2.33. Against it:
- RNQMIRNEYRKLHPVLHKEEKQHL — higher, 3.18
- RDQMIRNEYRKLHPVLHKEEKQHL — higher, 3.51
- RYQMIRNEYRKLHPVLHKEEKQHL — higher, 3.13
- RVQMIRNEYRKLHPVLHKEEKQHL — higher, 2.78
- RHQMIRNEYRKLHPVLHKEEKQHL — higher, 3.26
- EAQMIRNEYRKLHPVLHKEEKQHL — higher, 3.29
- SAQMIRNEYRKLHPVLHKEEKQHL — higher, 3.78
- NAQMIRNEYRKLHPVLHKEEKQHL — higher, 3.44
- TAQMIRNEYRKLHPVLHKEEKQHL — higher, 2.85
- VAQMIRNEYRKLHPVLHKEEKQHL — higher, 3.99
- PAQMIRNEYRKLHPVLHKEEKQHL — higher, 3.38
- AAQMIRNEYRKLHPVLHKEEKQHL — higher, 3.44
- RAQMIRNEYRKLHPVLWKEEKQHL — higher, 2.8
- RAQMIRNEYRKLHPVLMKEEKQHL — higher, 2.81
- RAQMIRNEYRKLHPVLSKEEKQHL — higher, 2.67
- RAQMIRNEYRKLHPVLYKEEKQHL — higher, 2.96
- RAQMIRNEYRKLHPVLLKEEKQHL — higher, 2.93
- RAQMIRNEYRKLHPVLHKEEPQHL — higher, 2.97
- RAQMIRNEYRKLHPVLHKEENQHL — higher, 2.77
- RAQMIRNEYRKLHPVLHKEEGQHL — higher, 2.42
- RAQMIRNEYRKLHPVLHKEEYQHL — higher, 2.71
- RAQMIRNEYRKLHPVLHKEEFQHL — higher, 2.58
- RAQMIRNEYRKLHPVLHKEERQHL — higher, 3.46
- RAQMIRNEYRKLHPVLHKEEEQHL — higher, 4.63
- RAQMIRNEYRKLHPVLHKEESQHL — higher, 2.81
- RAQMIRNEYRKLHPVLHKEEVQHL — higher, 3.37
- RAQMIRNEYRKLHPVLHKEECQHL — higher, 3.18
- RAQMIRNEYRKAHPVLHKEEKQHL — higher, 3.67
- RAQMIRNEYRKKHPVLHKEEKQHL — higher, 3.7
- RAQMIRNEYRKYHPVLHKEEKQHL — higher, 3.75
- RAQMIRNEYRKVHPVLHKEEKQHL — higher, 2.97
- RAQMIRNEYRKHHPVLHKEEKQHL — higher, 4.27
- RAQMIRNEYRKIHPVLHKEEKQHL — higher, 3.07
- RAQMIRNEYRKPHPVLHKEEKQHL — higher, 3.96
- RAQMIRNEYRKFHPVLHKEEKQHL — higher, 2.94
- RAQMIRNEYRKDHPVLHKEEKQHL — higher, 4.02
- RAQMIRNEYRKTHPVLHKEEKQHL — higher, 3.85
- RAQMIRNEYRKQHPVLHKEEKQHL — higher, 3.36
- RAQMIRNEYRKMHPVLHKEEKQHL — higher, 2.86
- RAQMIRNEYFKLHPVLHKEEKQHL — higher, 3.4
- RAQMIRNEYWKLHPVLHKEEKQHL — higher, 2.99
- RAQMIRNEYMKLHPVLHKEEKQHL — higher, 2.91
- RAQMIRNEYHKLHPVLHKEEKQHL — higher, 3.39
- RAQMIRNEYVKLHPVLHKEEKQHL — higher, 3.73
- RAQMIRNEYEKLHPVLHKEEKQHL — higher, 4.09
- RAQMIRNEYIKLHPVLHKEEKQHL — higher, 3.75
- RAQMIRNEYTKLHPVLHKEEKQHL — higher, 3.85
- RAQMIRNEYQKLHPVLHKEEKQHL — higher, 3.84
- RAQMIRNEYDKLHPVLHKEEKQHL — higher, 4.21
- RAQMIRNEYRVLHPVLHKEEKQHL — higher, 3.4
- RAQMIRNEYRMLHPVLHKEEKQHL — higher, 3.35
- RAQMIRNEYRFLHPVLHKEEKQHL — higher, 3.24
- RAQMIRNEYRSLHPVLHKEEKQHL — higher, 2.96
- RAQMIRNEYRGLHPVLHKEEKQHL — higher, 3.76
- RAQMIRNEYRHLHPVLHKEEKQHL — higher, 3.94
- RAQMIRNEYRRLHPVLHKEEKQHL — higher, 3.4
- RACMIRNEYRKLHPVLHKEEKQHL — higher, 2.68
- RAAMIRNEYRKLHPVLHKEEKQHL — higher, 2.67
- RAPMIRNEYRKLHPVLHKEEKQHL — higher, 3.39
- RAGMIRNEYRKLHPVLHKEEKQHL — higher, 3.04
- RAIMIRNEYRKLHPVLHKEEKQHL — higher, 2.78
- RAWMIRNEYRKLHPVLHKEEKQHL — higher, 2.79
- RAKMIRNEYRKLHPVLHKEEKQHL — higher, 3.7
- RAYMIRNEYRKLHPVLHKEEKQHL — higher, 2.54
- RAFMIRNEYRKLHPVLHKEEKQHL — the same, 2.33
- RAEMIRNEYRKLHPVLHKEEKQHL — higher, 3.48
- RAQMIRNEYRKLHPVLHKAEKQHL — lower, 2.17
- RAQMIRNEYRKLHPVLHKGEKQHL — higher, 2.96
- RAQMIRNEYRKLHPVLHKKEKQHL — higher, 3.41
- RAQMIRNEYRKLHPVLHKMEKQHL — lower, 2.23
- RAQMIRNEYRKLHPVLHKLEKQHL — lower, 2.07
- RAQMIRNEYRKLHPVLHKTEKQHL — higher, 2.82
- RAQMIRNEYRKLHPVLHKCEKQHL — higher, 2.71
- RAQMPRNEYRKLHPVLHKEEKQHL — higher, 3.83
- RAQMVRNEYRKLHPVLHKEEKQHL — higher, 3.15
- RAQMERNEYRKLHPVLHKEEKQHL — higher, 4.06
- RAQMMRNEYRKLHPVLHKEEKQHL — higher, 3.39
- RAQMHRNEYRKLHPVLHKEEKQHL — higher, 3.56
- RAQMQRNEYRKLHPVLHKEEKQHL — higher, 3.89
- RAQMGRNEYRKLHPVLHKEEKQHL — higher, 3.79
- RAQMKRNEYRKLHPVLHKEEKQHL — higher, 3.21
- RAQMIRNEHRKLHPVLHKEEKQHL — higher, 4.12
- RAQMIRNEVRKLHPVLHKEEKQHL — higher, 3.91
- RAQMIRNEMRKLHPVLHKEEKQHL — higher, 3.97
- RAQMIRNEWRKLHPVLHKEEKQHL — higher, 2.44
- RAQMIRNEDRKLHPVLHKEEKQHL — higher, 4.24
- RAQMIRNEARKLHPVLHKEEKQHL — higher, 4.04
- RAQMIRNECRKLHPVLHKEEKQHL — higher, 3.79
- RAQMIRNEQRKLHPVLHKEEKQHL — higher, 4.31
- RAQMIRNEERKLHPVLHKEEKQHL — higher, 3.96
- RAQMIRNEFRKLHPVLHKEEKQHL — higher, 3.35
- RAQMIRNESRKLHPVLHKEEKQHL — higher, 3.46
- RAQMIRNEGRKLHPVLHKEEKQHL — higher, 3.96

— the supplement of paper PMC10567573
